Values quoted from earlier work in US5763478A, “Triterpene derivatives with immunosuppressant activity” (Merck & Co., Inc., priority 1996, dated 1998).

Biological target: T1, KV 1.3 channels (CHO cells transfected with KV 1.3) (Homo sapiens, UniProt P22001)
T1 construct: expressed in transfected cells; host or cells: CHO cells
Details: reference blocker used at saturating concentration to set the efflux window

T1 sequence (P22001 53-575 limits assumed): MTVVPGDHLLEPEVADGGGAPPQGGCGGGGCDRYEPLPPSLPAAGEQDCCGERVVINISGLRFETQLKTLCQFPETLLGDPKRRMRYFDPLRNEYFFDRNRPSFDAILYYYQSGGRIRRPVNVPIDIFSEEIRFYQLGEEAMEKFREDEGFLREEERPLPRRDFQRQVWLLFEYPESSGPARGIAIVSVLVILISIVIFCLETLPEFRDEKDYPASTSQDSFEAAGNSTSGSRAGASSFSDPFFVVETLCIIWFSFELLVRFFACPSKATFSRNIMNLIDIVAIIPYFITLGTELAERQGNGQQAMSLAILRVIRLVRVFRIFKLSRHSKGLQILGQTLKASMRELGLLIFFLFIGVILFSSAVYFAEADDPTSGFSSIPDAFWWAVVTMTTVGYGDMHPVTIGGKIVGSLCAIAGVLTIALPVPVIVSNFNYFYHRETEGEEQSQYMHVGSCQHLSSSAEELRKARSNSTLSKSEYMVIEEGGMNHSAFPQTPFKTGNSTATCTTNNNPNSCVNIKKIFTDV

Q: For “margatoxin (TIINVKCTSPKQCLPPCKAQFGQSAGAKCMNGKCKCYPH; UniProt P40755 1-39, looked up)”, which IC50 is on record?
A: 0.1 nM
